According to PMC8041713, “Identification and biochemical characterisation of tyrosine aminotransferase from Anthoceros agrestis unveils the conceivable entry point into rosmarinic acid biosynthesis in hornworts” (Planta, 2021):

How the values were obtained:
Test in all cases: purified protein
purified protein [1] = substrate: N[C@@H](Cc1ccccc1)C(=O)O; assay type: biochemical, Anthoceros agrestis; details: co-substrate 80 mM 2-oxoglutarate, 0.48 mM PLP, 1 M Tris/HCl pH 8.5, 40 °C
purified protein [2] = substrate: O=C(O)CCC(=O)C(=O)O; assay type: biochemical, Anthoceros agrestis; details: co-substrate 6 mM L-tyrosine, 0.48 mM PLP, 1 M Tris/HCl pH 8.5, 40 °C
purified protein [3] = substrate: N[C@@H](Cc1ccc(O)cc1)C(=O)O; assay type: biochemical, Anthoceros agrestis; details: co-substrate 80 mM 2-oxoglutarate, 0.48 mM PLP, 1 M Tris/HCl pH 8.5, 40 °C
purified protein [4] = substrate: CC(=O)C(=O)O; assay type: biochemical, Anthoceros agrestis; details: co-substrate 6 mM L-tyrosine, 0.48 mM PLP, 1 M Tris/HCl pH 8.5, 40 °C
purified protein [5] = substrate: O=C(O)C(=O)Cc1ccccc1; assay type: biochemical, Anthoceros agrestis; details: co-substrate 6 mM L-tyrosine, 0.48 mM PLP, 1 M Tris/HCl pH 8.5, 40 °C
purified protein [6] = substrate: O=C(O)CC(=O)C(=O)O; details: co-substrate 6 mM L-tyrosine, 0.48 mM PLP, 1 M Tris/HCl pH 8.5, 40 °C

B1: AaTAT (tyrosine aminotransferase) (Anthoceros agrestis) (protein)
chain: MATVLNQKRQAEILHGNGVEGGGGGLAVSKIMSKAVVGKPPVARKPAGKTVDKEWNVRPRIAALESRNPIRDIVETKLKPNPNLGKKPISLAQGDPTVYGHLKVPESACAALAEVATSYKYNGYAHSAGILECRSAVADFHSEHLPFELTPEDVGIVVGCSQAIEFSIACLAAEGSNMLVPRPGFPIYDTFCRYYGVEVRYYDLLPERGWEVDLEQVAELADDDTAAMILCNPSNPCGTSFSYQHLSQIAGLCEKLKLPIISDEIYEHMLFGEKKFTPMATFSLQVPVLTVGGISKRWLAPGWRLGWILICDPCCILEKSGVVEALKRIMQMTIGTSVLVQAAVPAMLQNTTPEFYKQTMKTLEDGCDCCYRRIQGIVGLDVPTKPDGAMYMMAKVDPSAFKDIPDDTVFAEKLVKEENIVVLPGSAFGIHNWLRLVFATPVYMLEEAFDRIEAFCLRHASVQN
notes: full length, 464 residues (1395 bp), N-terminal 6xHis tag kept, pET-15b, E. coli SoluBL21, Ni-NTA
- Km (purified protein [1]): 70.47 ± 4.18 mM
- Vmax (purified protein [1]): 134 µmol/min/mg
- kcat (purified protein [1]): 119 ± 26.9 s⁻¹
- kcat/Km (purified protein [1]): 1700 ± 400 M⁻¹ s⁻¹
- Km (purified protein [2]): 15.13 ± 1.34 mM
- Vmax (purified protein [2]): 82.6 µmol/min/mg
- kcat (purified protein [2]): 73.1 ± 5.2 s⁻¹
- kcat/Km (purified protein [2]): 4900 ± 300 M⁻¹ s⁻¹
- Km (purified protein [3]): 0.53 ± 0.05 mM
- Vmax (purified protein [3]): 55.3 µmol/min/mg
- kcat (purified protein [3]): 48.9 ± 7.6 s⁻¹
- kcat/Km (purified protein [3]): 91700 ± 9800 M⁻¹ s⁻¹
- Km (purified protein [4]): 81.14 ± 15.12 mM
- Vmax (purified protein [4]): 13.4 µmol/min/mg
- kcat (purified protein [4]): 11.9 ± 1.6 s⁻¹
- kcat/Km (purified protein [4]): 150 ± 20 M⁻¹ s⁻¹
- Km (purified protein [5]): 7.92 ± 2.35 mM
- Vmax (purified protein [5]): 31.8 µmol/min/mg
- kcat (purified protein [5]): 28.2 ± 6.2 s⁻¹
- kcat/Km (purified protein [5]): 3900 ± 1400 M⁻¹ s⁻¹
- Km (purified protein [6]): 4.05 ± 1.44 mM
- Vmax (purified protein [6]): 0.756 µmol/min/mg
- kcat (purified protein [6]): 0.7 s⁻¹
- kcat/Km (purified protein [6]): 200 M⁻¹ s⁻¹
